Patent publication US20160347831A1 (F HOFFMAN LA ROCHE, published 2016)

T1: Aβ fragment 1-16 (human)
T1 construct: also called Aβ1-16; Aβ16
T1 peptide: DAEFRHDSGYEVHHQK

T2: Aβ fragment 29-40 (human)
T2 peptide: GAIIGLMVGGVV

B1: VHH R3VQ (VHH)
VHH: EVQLQASGGGLVQTGDSLRLSCADSGSTFRNYNIGWFRQTPGQAREFVAAVSRTGISTHVADSLQGRFTISRDNAKNTVYLQMNSLKPEDTAVYSCAAGRPGVGAVNRAMDYDYWGQGTQVTVSS
notes: Expressed with a His tag or a Strep tag; also called R3VQ(His)-NH2 1; R3VQ-NH2 1; not shown: 6-Histidine tag (pET23) or Strep tag (pASK IBA2) from the vector
B2: Aβ fragment 16-35 (peptide)
peptide: KLVFFAEDVGSNKGAIIGLM
notes: this fragment is not in the list of fragments tested (1-16, 10-20, 15-25, 22-35, 29-40); also called AP 16-35
B3: R3VQ(His)-N-(DOTA/Gd) conjugate 2c (VHH)
VHH: B1 VHH
modifications: DOTA/Gd randomly distributed on lysine residues; average Gd/protein (1) 2 (3)
notes: Non-site-specific conjugate; not shown: 6-Histidine tag from pET23
B4: R3VQ(His)-N-(DOTA/Gd) conjugate 2d (VHH)
VHH: B1 VHH
modifications: DOTA/Gd randomly distributed on lysine residues; average Gd/protein (1) 2 (3)
notes: as for B3

Legend:
Aβ fragment 1-16 = biological target: T1, Aβ fragment 1-16; assay: competition ELISA with soluble Aβ fragments
Method: (§1) The binding affinity of VHHs was determined as previously described (Friguet B. et al., 1985, Immunol Methods, 77:305-19). Briefly, various concentrations of Aβ peptides (A13 fragments 1-16, 10-20, 15-25, 22-35 and 29-40) were incubated in solution overnight at 4° C. with a known quantity of VHH until equilibrium was reached. The VHH concentration used was determined by preliminary ELISA calibrations. Each mixture (100 μl) was transferred to a well of a microtiter plate previously coated with antigen and was incubated for 20 min at 4° C. The plates were washed with buffer 0.1% Tween 20 in PBS and bound VHHs were detected by adding beta-galactosidase-conjugated goat anti-rabbit Igs (Biosys, Compiegne, France) and 4-methylumbelliferyl […] (Sigma). Fluorescence was read (Fluoroskan, Labsystem, Finland) at 460 nm, after excitation at 355 nm. KD was estimated from the slope of the regression curve obtained by plotting the reciprocal of the fraction of bound antibody versus the reciprocal of the molar concentration of antigen.

Aβ fragment 29-40 = biological target: T2, Aβ fragment 29-40; assay: competition ELISA with soluble Aβ fragments
Method: as §1

A-beta 42 peptide (Aβ42) = biological target: T3, A-beta 42 peptide (Aβ42) (human); assay: competition ELISA in solution (Friguet method)
T3 construct: Synthetic peptide (Bachem); incubated to give the fibrillar form for immunisation; also called Aβ1-42; fibrillar synthetic Aβ42 peptide
T3 sequence (peptide, as listed by the source): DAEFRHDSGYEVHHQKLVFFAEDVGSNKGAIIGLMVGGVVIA
Method: as §1

VHH R3VQ = biological target: B1; assay: competition ELISA, soluble Aβ fragment against antigen-coated plate
Method: as §1

A-beta 40 (Aβ40) = biological target: T4, A-beta 40 (Aβ40) (human); assay: ELISA on biotinylated Aβ40 (or Aβ42)
T4 construct: ELISA methods say 'A-beta 40 or A-beta 42 (preferably A-beta 40)'; also called Aβ1-40; biotinylated A-beta 40
T4 sequence (peptide, as listed by the source): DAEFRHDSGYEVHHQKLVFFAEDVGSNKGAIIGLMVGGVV

## B1
Aβ fragment 1-16
  binding result: no binding
Aβ fragment 29-40
  binding result: no binding
A-beta 42 peptide (Aβ42)
  Kd: 17 nM

## B2
VHH R3VQ
  IC50: 16 nM

## B3
A-beta 40 (Aβ40)
  binding in ELISA compared to the original VHH 1: ~10%

## B4
A-beta 40 (Aβ40)
  binding in ELISA compared to the original VHH 1: ~10%
